Measurements taken from article doi:10.1101/2021.10.15.464611.

Biological target: anti-PfTRAP monoclonal antibody AKBR-7 (mouse)
Test: BLI

B1: Plasmodium falciparum TRAP ectodomain (PfTRAP) (domain or fragment)
chain: RDVQNNIVDEIKYSEEVCNDQVDLYLLMDCSGSIRRHNWVNHAVPLAMKLIQQLNLNDNAIHLYVNVFSNNAKEIIRLHSDASKNKEKALIIIRSLLSTNLPYGRTNLTDALLQVRKHLNDRINRENANQLVVILTDGIPDSIQDSLKESRKLSDRGVKIAVFGIGQGINVAFNRFLVGCHPSDGKCNLYADSAWENVKNVIGPFMKAVCVEVEKTASCGVWDEWSPCSVTCGKGTRSRKREILHEGCTSEIQEQCEEERCPPKWEPLDVPDEPEDDQPRPRGDNSSVQKPEENIIDNNPQEPSPNPEEGKDENPNGFDLDENPENPPNPDIPEQKPNIPEDSEKEVPSDVPKNPEDDREENFDIPKKPENKHDNQNNLPNDKSDRNIPYSPLPPKVLDNERKQSDPQSQDNNGNRHVPNSEDRETRPHGRNNENRSYNRKYNDTPKHPEREEHEKPDNNKKKGESDNKYK
Kd: 150 pM
